Laboratory results published in publication doi:10.1101/2024.07.18.604210.

Experiments:
[1] = target: egSepF-CTD G163K (E. gallinarum); experiment: AUC
[2] = target: saSepF-CTD G145K (S. aureus); experiment: AUC

| Substance | stoichiometry N [1] | stoichiometry N [2] |
| --- | --- | --- |
| egSepF-CTD G163K (domain or fragment) | 2 | – |
| saSepF-CTD G145K (domain or fragment) | – | 2 |
